No end group written: not given here.
T1: human glycophorin A on human red blood cells or red blood cell membranes (human, UniProt P02724 20-150)
T1 construct: whole, on cells; also called hRBC; human RBC membranes
T1 sequence (looked up): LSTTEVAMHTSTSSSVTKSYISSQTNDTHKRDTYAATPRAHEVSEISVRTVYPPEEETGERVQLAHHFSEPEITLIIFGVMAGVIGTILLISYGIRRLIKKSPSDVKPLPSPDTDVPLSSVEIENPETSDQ

T2: GP10 peptide of the human GPA ectodomain (human, not fully specified (N-terminus))
T2 peptide: TVYPPEEE

T3: GP11 peptide of the human GPA ectodomain (human, not fully specified (N-terminus))
T3 peptide: VYPPEEET

T4: GP12 peptide of the human GPA ectodomain (human, not fully specified (N-terminus))
T4 peptide: YPPEEETG

T5: GP13 peptide of the human GPA ectodomain (human, not fully specified (N-terminus))
T5 peptide: PPEEETGE

T6: GP14 peptide of the human GPA ectodomain (human, not fully specified (N-terminus))
T6 peptide: PEEETGER

T7: GP15 peptide of the human GPA ectodomain (human, not fully specified (N-terminus))
T7 peptide: EEETGERV

T8: GP16 peptide of the human GPA ectodomain (human, not fully specified (N-terminus))
T8 peptide: EETGERVQ

T9: GP7 peptide of the human GPA ectodomain (human, not fully specified (N-terminus))
T9 peptide: SVRTVYPP

T10: GP8 peptide of the human GPA ectodomain (human, not fully specified (N-terminus))
T10 peptide: VRTVYPPE

T11: GP9 peptide of the human GPA ectodomain (human, not fully specified (N-terminus))
T11 peptide: RTVYPPEE


Experiments:
[1] = target: T1, human glycophorin A on human red blood …; assay: SPR (Biacore), Fab on human RBC membranes;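 further: human RBC membranes captured on an L1 sensor chip, Fab fragments passed over as analyte, binding kinetics read by surface plasmon resonance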
Method: Kinetic analysis of the antibody binding to human red blood cell membranes was also performed using surface plasmon resonance (SPR) using a Biacore instrument. In this assay membranes prepared from human red blood cells were attached to a L1 sensor matrix and antibodies were flowed over the RBC membranes.
The binding kinetics of the affinity matured Fab antibodies was also measured.

[2] = target: T2, GP10 peptide of the human GPA ectodomain; assay: ELISA, Fab 0.5 ug/ml on biotin-peptide on streptavidin plate
From the text: (§1) These peptides were attached to the surface of a streptavidin coated plate via a biotin moiety that was present at the N-terminus of each peptide.

[3] = target: T3, GP11 peptide of the human GPA ectodomain; assay: as above
From the text: as §1

[4] = target: T4, GP12 peptide of the human GPA ectodomain; assay: as above
From the text: as §1

[5] = target: T5, GP13 peptide of the human GPA ectodomain; assay: as above
From the text: as §1

[6] = target: T6, GP14 peptide of the human GPA ectodomain; assay: as above
From the text: as §1

[7] = target: T7, GP15 peptide of the human GPA ectodomain; assay: as above
From the text: as §1

[8] = target: T8, GP16 peptide of the human GPA ectodomain; assay: as above
From the text: as §1

[9] = target: T12, GP5 peptide of the human GPA ectodomain (human, N-terminal biotin); assay: as above
T12 construct: Residues 42 to 61 of the human GPA extracellular domain
From the text: as §1

[10] = target: T9, GP7 peptide of the human GPA ectodomain; assay: as above
From the text: as §1

[11] = target: T10, GP8 peptide of the human GPA ectodomain; assay: as above
From the text: as §1

[12] = target: T11, GP9 peptide of the human GPA ectodomain; assay: as above
From the text: as §1

[13] = target: T2, GP10 peptide of the human GPA ectodomain; assay: ELISA, Fab 0.05 ug/ml on biotin-peptide on streptavidin plate
From the text: as §1

[14] = target: T3, GP11 peptide of the human GPA ectodomain; assay: as above
From the text: as §1

[15] = target: T4, GP12 peptide of the human GPA ectodomain; assay: as above
From the text: as §1

[16] = target: T5, GP13 peptide of the human GPA ectodomain; assay: as above
From the text: as §1

[17] = target: T6, GP14 peptide of the human GPA ectodomain; assay: as above
From the text: as §1

[18] = target: T7, GP15 peptide of the human GPA ectodomain; assay: as above
From the text: as §1

[19] = target: T8, GP16 peptide of the human GPA ectodomain; assay: as above
From the text: as §1

[20] = target: T12, GP5 peptide of the human GPA ectodomain; assay: as above
From the text: as §1

[21] = target: T9, GP7 peptide of the human GPA ectodomain; assay: as above
From the text: as §1

[22] = target: T10, GP8 peptide of the human GPA ectodomain; assay: as above
From the text: as §1

[23] = target: T11, GP9 peptide of the human GPA ectodomain; assay: as above
From the text: as §1

[24] = target: T1, human glycophorin A on human red blood …; assay: Fab on intact human RBC, unbound Fab by ELISA; 0 min after 200-fold dilution
Method: (§2) The binding of affinity matured Fab antibodies to intact human RBC was also measured. Human RBC were isolated from fresh anti-coagulated normal human blood by centrifugation through a ficol gradient and washing in PBS buffer. RBC diluted to 1/10th of normal hematocrit were incubated with purified Fab antibodies at a final concentration of 7 ug/ml for 1 hour at room temperature on a rotating shaker after which a sample was taken and the RBC were pelleted by centrifugation and the supernatant was collected. The remaining RBC suspension was diluted 200-fold in PBS buffer and incubated for a total of 2 hours at room temperature on a rotating shaker and samples were removed at 0, 5 min, 20 min, 1 h and 2 h and the RBC pelleted and the supernatant collected. The amount of Fab in the supernatants was then measured using an ELISA assay and the results used to calculate the percentage of the input Fab that was bound to the RBC. […] The percentage that remains bound after 200-fold dilution of the RBC suspension is an indication of the overall strength of the binding to human RBC.

[25] = target: T1, human glycophorin A on human red blood …; assay: Fab on intact human RBC, unbound Fab by ELISA; 5 min after 200-fold dilution
Method: as §2

[26] = target: T1, human glycophorin A on human red blood …; assay: Fab on intact human RBC, unbound Fab by ELISA; 20 min after 200-fold dilution
Method: as §2

[27] = target: T1, human glycophorin A on human red blood …; assay: Fab on intact human RBC, unbound Fab by ELISA; 120 min after 200-fold dilution
Method: as §2

kon [1] [M⁻¹ s⁻¹]	binding signal in ELISA (relative light units) [2] [RLU]	binding signal in ELISA (relative light units) [3] [RLU]	binding signal in ELISA (relative light units) [4] [RLU]	binding signal in ELISA (relative light units) [5] [RLU]	binding signal in ELISA (relative light units) [6] [RLU]	binding signal in ELISA (relative light units) [7] [RLU]	binding signal in ELISA (relative light units) [8] [RLU]	binding signal in ELISA (relative light units) [9] [RLU]	binding signal in ELISA (relative light units) [10] [RLU]	binding signal in ELISA (relative light units) [11] [RLU]	binding signal in ELISA (relative light units) [12] [RLU]	binding signal in ELISA (relative light units) [13] [RLU]	binding signal in ELISA (relative light units) [14] [RLU]	binding signal in ELISA (relative light units) [15] [RLU]	binding signal in ELISA (relative light units) [16] [RLU]	binding signal in ELISA (relative light units) [17] [RLU]	binding signal in ELISA (relative light units) [18] [RLU]	binding signal in ELISA (relative light units) [19] [RLU]	binding signal in ELISA (relative light units) [20] [RLU]	other results	Binder
8.58e+06	38	1	0	-1	0	0	0	6990	1	3370	169	7	0	-1	0	-1	-1	-1	2880	binding signal in ELISA (relative light units) [21]: 0 RLU; binding signal in ELISA (relative light units) [22]: 83 RLU; binding signal in ELISA (relative light units) [23]: 7 RLU; percentage of input antibody bound [24]: 88%; percentage of input antibody bound [25]: 89%; percentage of input antibody bound [26]: 88%; percentage of input antibody bound [27]: 88%	TPP-7790, affinity matured 6C12 Fab (Fab, V domains shown, Tested as Fab with a 6xHIS tag) VH: EVQLVQSGAEVKKPGASVKVSCKASGYTFTTYAIHWVRQAPGQGLEWMGYINPSSGYTRYNPKFKHRVTMTRDKSTSTAYMELRSLRSDDTAVYYCWTGTRDYWGQGTTVTVSS VL: DIQLTQSPSFLSASVGDRVTITCRASSSVRYIYWFQQKPGKAPKLLIYATSFLQSGVPSRFSGSGSGTEYTLTISSLQPEDFATYYCHQRNSFPYTFGQGTKLEIK
7.14e+06	0	0	-1	-1	-1	-1	-1	6680	0	1	1	0	-1	-1	-1	-1	-1	0	2000	Kd [1]: 0.707 nM; koff [1]: 0.00504 s⁻¹; binding signal in ELISA (relative light units) [21]: -1 RLU; binding signal in ELISA (relative light units) [22]: -1 RLU; binding signal in ELISA (relative light units) [23]: -1 RLU; percentage of input antibody bound [24]: 82%; percentage of input antibody bound [25]: 28%; percentage of input antibody bound [26]: 4%; percentage of input antibody bound [27]: 8%	TPP-5906, humanized and germlined 6C12 Fab; VL: (S24R, A26S, S49A, P54Q, F95Y); VH: (I48M, D56G, D66G, L70M, T72R) (Fab, V domains shown, The text says that a 6xHIS tag is present on the Fabs in the peptide ELISA; it is not in the printed chains) VH: EVQLVQSGAEVKKPGASVKVSCKASGYTFTTYTIHWVRQAPGQGLEWMGYINPSSGYTRYNPKFKGRVTMTRDKSTSTAYMELRSLRSDDTAVYYCQTGTRDYWGQGTTVTVSS VL: DIQLTQSPSFLSASVGDRVTITCRASSSVSYIYWFQQKPGKAPKLLIYATSTLQSGVPSRFSGSGSGTEYTLTISSLQPEDFATYYCHQRNSFPYTFGQGTKLEIKR
